Positions of bridges follow the written chain, without caps; N, C: chain ends. Non-standard residues stand in square brackets, D forms with d. No end group written: not given here. AlaL = alanine half of a lanthionine (monosulfide) bridge
B1: Tyr-c[D-AlaL-Gly-Phe-L-AlaL]-NH2 (peptide)
peptide: Y[dAlaL]GF[AlaL]-NH2
modifications: bridge 2-5; not fully specified (bridges); printed as Tyr-c[D-AlaL-Gly-Phe-L-AlaL]-NH2
B2: Tyr-c[D-AlaL-Gly-Phe-L-AlaL]-OH (peptide)
peptide: Y[dAlaL]GF[AlaL]-OH
modifications: bridge 2-5; not fully specified (bridges); printed as Tyr-c[D-AlaL-Gly-Phe-L-AlaL]-OH
B3: c[AlaL3, AlaL14]-Somatostatin-14 (peptide)
chain: AG[AlaL]KNFFWKTFTS[AlaL]
modifications: bridge 3-14; not fully specified (bridges); printed as c[AlaL3, AlaL14]-Somatostatin-14

How the values were obtained:
[1] = molecular target: T1, µ-receptor (guinea pig ileum preparation) (guinea pig); experiment: cell-based or functional assay
[2] = molecular target: T1, µ-receptor (guinea pig ileum …); experiment: cell-based or functional assay; remark: listed apart in the source
[3] = molecular target: SSTR2 Receptor (cloned somatostatin receptor); experiment: inhibition of radioligand binding to cloned SSTR2
Sequence of SSTR2 Receptor (cloned somatostatin receptor) (P30875 whole entry): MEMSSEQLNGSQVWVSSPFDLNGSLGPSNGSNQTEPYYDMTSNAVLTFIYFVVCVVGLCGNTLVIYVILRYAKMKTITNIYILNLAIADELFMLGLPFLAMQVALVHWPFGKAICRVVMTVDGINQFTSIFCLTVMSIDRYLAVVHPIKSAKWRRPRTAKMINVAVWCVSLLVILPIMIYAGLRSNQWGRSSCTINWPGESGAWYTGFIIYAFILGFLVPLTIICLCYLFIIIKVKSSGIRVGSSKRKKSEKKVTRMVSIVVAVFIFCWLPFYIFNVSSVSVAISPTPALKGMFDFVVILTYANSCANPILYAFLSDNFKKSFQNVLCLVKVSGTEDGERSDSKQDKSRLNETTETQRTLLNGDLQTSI

Binder | bioactivity at the GPI relative to [Leu^5]-enkephalin [1] [fold] | GPI IC50 [2] [pM] | IC50 [3] [pM]
B1 | 400 | 620 | 
B2 |  | 450 | 
B3 |  |  | 300

Source: patent US20020165132A1 (published 2002)
